Experimental findings from patent US20220242968A1 (BIOTHEUS, published 2022) are described below.

The target in test [1] is T1, human CEACAM5 on tumor cells (LOVO, LS174T, KATO3) (human, UniProt P06731 35-685).
T1 construct: whole, on cells; also called LOVO cells; LS174T cells
T1 sequence (looked up): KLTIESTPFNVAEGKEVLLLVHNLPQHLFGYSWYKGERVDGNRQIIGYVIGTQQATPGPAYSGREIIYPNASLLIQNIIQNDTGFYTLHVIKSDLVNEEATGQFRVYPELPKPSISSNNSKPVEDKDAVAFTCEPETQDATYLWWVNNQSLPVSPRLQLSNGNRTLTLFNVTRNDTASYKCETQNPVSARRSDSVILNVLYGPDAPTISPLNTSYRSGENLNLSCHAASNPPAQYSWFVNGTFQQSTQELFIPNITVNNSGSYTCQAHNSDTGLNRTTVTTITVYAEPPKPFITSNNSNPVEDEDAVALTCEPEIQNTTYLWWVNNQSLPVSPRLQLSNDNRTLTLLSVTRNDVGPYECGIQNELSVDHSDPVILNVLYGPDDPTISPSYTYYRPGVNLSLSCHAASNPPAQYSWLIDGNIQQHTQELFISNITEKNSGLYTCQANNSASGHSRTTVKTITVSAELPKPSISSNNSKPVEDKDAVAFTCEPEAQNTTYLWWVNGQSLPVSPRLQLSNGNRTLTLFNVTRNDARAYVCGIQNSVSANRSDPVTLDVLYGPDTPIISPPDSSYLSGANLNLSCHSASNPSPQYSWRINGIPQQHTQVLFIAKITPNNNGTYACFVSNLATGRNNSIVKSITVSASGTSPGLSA
As to the kind of experiment: FACS on LS174T cells. How it is done: LS174T cells (tumor cells with high expression of CEACAM5) were cultured in RPMI1640 medium containing 10% FBS. After digesting LS174T cells with TrypLE trypsin, the cells were centrifuged and resuspended in DPBS solution (FACS buffer, 4° C.) containing 2% BSA; then, the cells were added at 5×10⁵/100 μL/well to the U-shaped bottom 96-well plate, and a series of dilution solutions of antibody were added to the U-shaped bottom 96-well plate, mixture was incubated at 4° C. for 1 hour. After incubation, the mixture was centrifuged and the resulted supernatant was discarded; 100 μl of secondary antibody (anti-human IgG Fc-APC) was added to each well, and incubated at 4° C. for 1 hour. After incubation, the cells were washed once with FACS buffer, resuspended in 200 μl FACS buffer, and the fluorescence signal value was read in BD C6 plus.
The 47th amino acid (Cys) of the human-mouse chimeric antibody UM05-5L VH was mutated to Trp, and the mutated antibody was named UM05-5L C47W; the 47th amino acid (Trp) of the humanized antibody hUM05-3 VH was mutated to Cys, and the mutated antibody was named hUM05-3 W47C. As described in Example 10, the ability of the antibody binding to LS174T cells was tested.

For test [2], the target named is T1, human CEACAM5 on tumor cells (LOVO, …). As to the kind of experiment: cell-based or functional assay.
Test [3] addresses T2, human CEACAM5 protein (human, UniProt P06731 35-685, limits assumed).
T2 construct: also called CD66e
T2 sequence (looked up): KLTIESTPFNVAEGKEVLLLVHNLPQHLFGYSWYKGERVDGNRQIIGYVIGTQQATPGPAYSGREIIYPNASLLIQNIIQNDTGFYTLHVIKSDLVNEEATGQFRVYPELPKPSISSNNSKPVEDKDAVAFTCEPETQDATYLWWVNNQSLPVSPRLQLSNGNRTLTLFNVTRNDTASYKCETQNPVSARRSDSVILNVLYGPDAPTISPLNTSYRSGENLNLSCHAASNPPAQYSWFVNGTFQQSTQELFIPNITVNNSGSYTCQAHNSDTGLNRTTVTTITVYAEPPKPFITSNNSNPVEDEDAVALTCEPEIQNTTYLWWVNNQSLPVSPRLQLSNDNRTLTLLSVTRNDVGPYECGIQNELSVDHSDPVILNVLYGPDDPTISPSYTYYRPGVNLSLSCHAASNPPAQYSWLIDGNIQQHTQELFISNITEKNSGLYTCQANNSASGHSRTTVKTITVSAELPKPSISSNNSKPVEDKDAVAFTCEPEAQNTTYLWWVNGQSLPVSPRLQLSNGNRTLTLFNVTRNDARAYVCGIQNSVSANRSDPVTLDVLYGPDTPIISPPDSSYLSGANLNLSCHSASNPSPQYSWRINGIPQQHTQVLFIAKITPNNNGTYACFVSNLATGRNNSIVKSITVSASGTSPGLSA
The test is described as follows: ELISA, plate coated with human CEACAM5 protein at 1 µg/mL. On the procedure: On the next day, it was first washed with 300 μL of PBST (Tween20: 0.5% o) for 3 times, then blocked with 100 μL/well of 5% BSA/PBS for 1 hour, and shaken at room temperature. Washing was performed 3 times with 300 μL of PBST. A series of dilution solutions of antibody samples were prepared with PBS, and added at 100 μL/well to the 96-well plate and shaken at room temperature for 1 hour. Washing was performed 3 times with 300 μL of PBST. A secondary antibody goat anti-human IgG HRP solution was prepared, added at 100 μL/well to the 96-well plate, and shaken at room temperature for 30 minutes. Washing was performed 4 times with 300 μL of PBST. 100 μL/well TMB was added to perform color development for 20 min. 100 μL/well of 0.6N H₂SO₄ was added to stop the color development, and OD450nm was detected.
(In general: ELISA stands for enzyme-linked immunosorbent assay.)

Test [4] addresses T3, CEACAM8 overexpressed on CHO cells (UniProt P31997 35-320, limits assumed).
T3 construct: whole, on cells; also called CHO-CEACAM8
T3 sequence (looked up): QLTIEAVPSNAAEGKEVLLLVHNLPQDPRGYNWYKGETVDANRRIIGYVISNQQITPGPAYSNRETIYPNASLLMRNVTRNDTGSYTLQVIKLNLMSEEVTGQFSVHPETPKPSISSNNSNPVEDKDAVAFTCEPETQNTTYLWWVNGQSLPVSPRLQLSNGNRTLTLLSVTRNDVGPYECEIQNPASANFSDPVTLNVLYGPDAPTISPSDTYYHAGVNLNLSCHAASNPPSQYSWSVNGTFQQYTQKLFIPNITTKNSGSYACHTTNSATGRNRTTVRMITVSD
As to the kind of experiment: FACS on CHO-CEACAM8 cells. How it is done:
(§1) Flow cytometry (FACS) was used to detect the binding of antibody to LOVO tumor cells naturally expressing human CEACAM5 or cells overexpressing different CEACAM family members. In short, cells were first collected, washed with PBS, counted, and diluted to obtain 2*10⁶/ml cell suspension; 10 μl of an antibody working solution was added to 100 μl of the cell suspension, and incubated at 4° C. for 30 min in the dark; after washing twice with PBS, a corresponding fluorescent-labeled secondary antibody Goat-anti-Human IgG (H+L) (Invitrogen) was added, incubated at 4° C. for 30 min in the dark, after washing twice with PBS, it was suspended in 400 μl of FACS buffer, and the binding profile of the antibody to the cells were detected by FACS.
(§2) The binding profile of the supernatants of the chimeric antibody UM05-5L and the control antibody UM05-8 (anti-CEACAM5 antibody, prepared by the hybridoma method in our laboratory) to different cells at a concentration of 3 μg/mL were detected, in which SW620-CEACAM1 was a cell overexpressing CEACAM1, SW620-CEACAM3 was a cell overexpressing CEACAM3, CHO-CEACAM6 was a cell overexpressing CEACAM6, CHO-CEACAM7 was a cell overexpressing CEACAM7, and CHO-CEACAM8 was a cell overexpressing CEACAM8. […]

In test [5] the target is T4, CEACAM7 overexpressed on CHO cells (UniProt Q14002 36-242, limits assumed).
T4 construct: whole, on cells; also called CHO-CEACAM7
T4 sequence (looked up): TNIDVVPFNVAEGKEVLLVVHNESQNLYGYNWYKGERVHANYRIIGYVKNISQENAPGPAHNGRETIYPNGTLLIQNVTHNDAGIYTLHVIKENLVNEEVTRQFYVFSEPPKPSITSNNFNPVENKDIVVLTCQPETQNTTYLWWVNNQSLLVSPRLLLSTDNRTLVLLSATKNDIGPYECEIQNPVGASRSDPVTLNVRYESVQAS
The test is described as follows: FACS on CHO-CEACAM7 cells. On the procedure:
as §1, §2

The target of test [6] is T5, CEACAM1 overexpressed on SW620 cells (UniProt P13688 35-526, limits assumed).
T5 construct: whole, on cells; also called SW620-CEACAM1
T5 sequence (looked up): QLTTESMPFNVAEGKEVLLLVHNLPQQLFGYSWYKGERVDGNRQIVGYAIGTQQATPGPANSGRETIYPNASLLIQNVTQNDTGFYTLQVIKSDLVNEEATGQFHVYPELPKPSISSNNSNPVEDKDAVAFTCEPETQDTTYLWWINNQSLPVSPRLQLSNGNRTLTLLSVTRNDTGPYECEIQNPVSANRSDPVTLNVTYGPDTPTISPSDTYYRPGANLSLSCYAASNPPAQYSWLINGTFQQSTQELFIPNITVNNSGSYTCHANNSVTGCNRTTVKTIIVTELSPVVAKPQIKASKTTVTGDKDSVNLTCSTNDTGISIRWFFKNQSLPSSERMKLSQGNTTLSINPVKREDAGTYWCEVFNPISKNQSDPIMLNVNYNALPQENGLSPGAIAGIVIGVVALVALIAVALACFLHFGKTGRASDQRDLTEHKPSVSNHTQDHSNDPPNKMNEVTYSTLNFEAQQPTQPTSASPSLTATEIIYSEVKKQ
The test is described as follows: FACS on SW620-CEACAM1 cells. How it is done: as §1, §2

For test [7], the target named is T1, human CEACAM5 on tumor cells (LOVO, …). The test is described as follows: FACS on LOVO tumor cells naturally expressing human CEACAM5. On the procedure: as §1
Furthermore, we used FACS to detect the EC50 of the chimeric antibody UM05-5L binding to LOVO tumor cells that naturally expressed human CEACAM5. […] Based on the above results, the chimeric antibody UM05-5L had excellent binding affinity, specificity and selectivity to CEACAM5.

The target in test [8] is T6, CEACAM3 overexpressed on SW620 cells (UniProt P40198 35-252, limits assumed).
T6 construct: whole, on cells; also called SW620-CEACAM3
T6 sequence (looked up): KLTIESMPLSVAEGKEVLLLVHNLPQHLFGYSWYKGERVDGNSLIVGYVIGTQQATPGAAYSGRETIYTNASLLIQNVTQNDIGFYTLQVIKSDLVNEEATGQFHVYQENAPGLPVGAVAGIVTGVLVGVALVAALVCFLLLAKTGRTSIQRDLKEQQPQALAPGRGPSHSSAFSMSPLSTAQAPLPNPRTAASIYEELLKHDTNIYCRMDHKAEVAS
As to the kind of experiment: FACS on SW620-CEACAM3 cells. On the procedure:
as §1, §2

B1: humanized antibody hUM05-3 (antibody, V domains shown)
VH: EVQLVQSGAEVKKPGATVKISCKVSGYTFTDHTMHWMQQAPGQGLEWIGLIYPRDGSTIYNEKFQGRATLTADRSTDTAYMELSSLRSEDTAVYFCARPIYDGYSFDYWGQGTLVTVSS
VL: QIVLTQSPATLSASPGERATLSCRASSSVSYMHWYQQKPGQAPKRWIYDTSNRATGVPARFSGSGSGTDYTLTISSMEPEDAAVYYCQQWTRNPPTFGQGTKLELK
notes: detected with anti-human IgG Fc-APC
Consider B1, for which, in test [1], it took 0.53 µg/mL to reach a half-maximal effect (EC50) and the “Emax MFI (Average fluorescence intensity)” value (shortened to “Emax MFI”) amounted to 52900 MFI.

B2: hUM05-3 W47C (antibody, V domains shown)
VH: EVQLVQSGAEVKKPGATVKISCKVSGYTFTDHTMHWMQQAPGQGLECIGLIYPRDGSTIYNEKFQGRATLTADRSTDTAYMELSSLRSEDTAVYFCARPIYDGYSFDYWGQGTLVTVSS
VL: QIVLTQSPATLSASPGERATLSCRASSSVSYMHWYQQKPGQAPKRWIYDTSNRATGVPARFSGSGSGTDYTLTISSMEPEDAAVYYCQQWTRNPPTFGQGTKLELK
notes: also called mutated humanized antibody hUM05-3 (VH Trp47 to Cys)
B2: in test [1], the EC50 (commonly the concentration at which the effect is half-maximal) was 1.47 µg/mL and the “Emax MFI” value is 34400 MFI.

B3: human-mouse chimeric antibody UM05-5L (antibody, human IgG1, kappa, V domains shown)
VH: QVQLQQSDADLVKPGASVKISCKVSGYTFTDHTIHWMKQRPEQGLECIGYIYPRDGNTKYNEKFKGKATLTADRSSITAYMQLNSLTSEDSAVYFCARPIYDGYSFDYWGQGTTLTVSS
VL: QIVLTQSPAIMSASPGEKVTMTCRASSSVSYMHWYQQKSGTSPKRWIYDTSKLASGVPARFSGSGSGTSYSLTISSMAAEDAATYYCQQWTRNPPTFGAGTKLELKR
notes: expressed in HEK293
For the molecule B3, the “ADCC activity (luciferase in Jurkat/ADC effector cells, LOVO target cells), EC50” value in test [2] is 0.85 µg/mL. In addition, the EC50 in test [3] came to 0.105 µg/mL; in test [1], 0.81 µg/mL; in test [7], 3.17 µg/mL. For the same molecule, the binding result in test [4], in test [5], in test [6] and in test [8] was “no binding (tested: 3 µg/mL)” in each case. For the same molecule, the “Emax MFI” value in test [1] was 79700 MFI.

B4: UM05-5L C47W (antibody, human IgG1, kappa, V domains shown)
VH: QVQLQQSDADLVKPGASVKISCKVSGYTFTDHTIHWMKQRPEQGLEWIGYIYPRDGNTKYNEKFKGKATLTADRSSITAYMQLNSLTSEDSAVYFCARPIYDGYSFDYWGQGTTLTVSS
VL: QIVLTQSPAIMSASPGEKVTMTCRASSSVSYMHWYQQKSGTSPKRWIYDTSKLASGVPARFSGSGSGTSYSLTISSMAAEDAATYYCQQWTRNPPTFGAGTKLELKR
notes: also called mutated human-mouse chimeric antibody UM05-5L (VH Cys47 to Trp)
For the molecule B4, in test [1], the 50% effective concentration (EC50) amounted to 2.46 µg/mL and the “Emax MFI” value came out at 55200 MFI.
